{"source": "paper PMC10474099", "about": "“SLC39A10 promotes malignant phenotypes of gastric cancer cells by activating the CK2-mediated MAPK/ERK and PI3K/AKT pathways” (Experimental & Molecular Medicine, 2023)", "proteins": {"B1": {"name": "CK2β (casein kinase 2 regulatory β subunit), human, recombinant His-tagged (natural protein)", "chain": "not shown", "notes": "human CK2β (casein kinase 2 beta subunit), Gene ID 1460, CSNK2B; cloned into pET-28a(+); The plasmid is named pET-28a (+)-HIS-CK2β; also called CSNK2B; HIS-CK2β"}}, "target": "the molecule itself", "experiment": "native gel or EMSA; native PAGE with Coomassie blue staining; CK2β refolded in 20 mM Tris pH 7.2, 5 mM DTT with 4 μM ZnSO4 (presence of Zn2+); monomer to dimer", "data": [{"protein": "B1", "values": [{"measurement": "stoichiometry N", "result": 2}]}]}
